Like-named read-outs stand apart in the source and are kept apart here.
What was measured:
S. cerevisiae cells = settings: cited from earlier work
Sz. pombe cells = settings: cited from earlier work
[1] = molecular target: P-factor receptor (encoded by the mam2 gene) (Schizosaccharomyces pombe) (UniProt Q00619)

Row | Substance | Sensitivity of cells to the toxin (S. cerevisiae cells; S. cerevisiae spheroplasts (cell wall enzymatically removed)) | Sensitivity of cells to the toxin (S. cerevisiae cells; intact S. cerevisiae cells) | Sensitivity of cells to the toxin (Sz. pombe cells) | colony formation of sxa2>ura4 reporter cells on plates lacking uracil with different concentrations of P-factor [1] [units/ml]
1 | Diphtheria toxin | sensitive | resistant | sensitive | –
2 | P-factor mating pheromone (peptide) | – | – | – | > 10
